In patent publication US20260049115A1:

Target: CCR5 on ThP1 human monocytes (human) (UniProt P51681)
Sequence (P51681 whole entry): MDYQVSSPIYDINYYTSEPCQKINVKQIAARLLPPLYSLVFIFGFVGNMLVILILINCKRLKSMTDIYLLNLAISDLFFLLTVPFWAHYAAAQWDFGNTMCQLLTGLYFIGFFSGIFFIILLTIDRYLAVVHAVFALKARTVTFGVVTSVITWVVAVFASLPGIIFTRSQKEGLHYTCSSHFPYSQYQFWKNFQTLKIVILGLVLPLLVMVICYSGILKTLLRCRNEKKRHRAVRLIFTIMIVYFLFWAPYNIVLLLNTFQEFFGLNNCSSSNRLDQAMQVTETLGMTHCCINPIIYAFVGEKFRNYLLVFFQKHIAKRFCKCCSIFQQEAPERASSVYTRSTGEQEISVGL

EC50, calcium flux (RFU) in ThP1 monocytes [panel D]: 6.3 nM
Substance: native form murine CCL4 (from UniProt P14097 24-92) (ligand)
